Reference: patent US20140274782A1, “AFFINITY REAGENTS AND METHODS FOR DETECTION, PURIFICATION, AND PROTEOMIC ANALYSIS OF METHYLATED PROTEINS” (The Board of Trustees of the Leland Stanford Junior …, priority 2013, published 2014)

Biological target: RPL14-60S ribosomal protein L14 (human) (UniProt P50914)
Assay: ProtoArray, GST-treated control array

Chain of 3× Flag-3×MBT (designed binder; other documents disagree on this pair) (Q9Y468 258-598): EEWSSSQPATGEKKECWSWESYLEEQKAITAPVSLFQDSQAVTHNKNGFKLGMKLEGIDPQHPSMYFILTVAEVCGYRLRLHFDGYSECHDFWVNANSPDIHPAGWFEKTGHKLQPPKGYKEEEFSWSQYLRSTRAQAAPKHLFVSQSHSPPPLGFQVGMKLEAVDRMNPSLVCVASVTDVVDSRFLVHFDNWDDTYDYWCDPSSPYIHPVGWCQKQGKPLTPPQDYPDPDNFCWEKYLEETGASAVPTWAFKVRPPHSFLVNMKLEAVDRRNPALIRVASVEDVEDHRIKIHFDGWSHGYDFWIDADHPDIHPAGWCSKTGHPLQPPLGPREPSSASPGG

3× Flag-3×MBT (designed binder; other documents disagree on this pair)
GST Average SNR: 0.728
